Results from patent publication US20250122303A1, “TREATMENT AND PREVENTION OF CANCER USING HER3 ANTIGEN-BINDING MOLECULES” (Hummingbird Bioscience Pte. Ltd., priority 2021, published 2025).

Assays:
[1] = test system: HER3-mediated signalling; assay: Phospho-western blot of HER3-mediated signalling in cancer cell lines; format: cell-based, human; conditions: N87 and FaDu cells, 50 μg/ml 4 hrs, NRG 100 ng/ml
Description: Briefly, N87 and FaDu cells were seeded in wells of a 6 well plate with 10% serum at 37° C., 5% CO2. After 16 hrs, cells were starved by culture overnight in 1% FBS cell culture medium (to reduce signalling elicited by growth factors in the serum). On the following day cells were treated with 50 μg/ml anti-HER3 antibody 10D1 for 4 hrs, followed by 15 min stimulation with NRG (100 ng/ml). Proteins were then extracted, quantified using standard Bradford protein assay, fractionated by SDS-PAGE, and transferred to nitrocellulose membranes. The membranes were then blocked and immunoblotted with the following antibodies overnight at 4° C. anti-pHER3, anti-pAKT, pan anti-HER3, pan anti-AKT and anti-beta-actin. The blots were visualized via Bio-Rad Clarity Western ECL substrate, and bands were quantified using densiometric analysis; data were normalized to beta actin controls.
N87, FaDu or OvCAR8 cells were seeded in wells in a 6 well plate with 10% serum overnight at 37° C. with 5% CO2.
Before harvesting, cells were stimulated with 100 ng/ml of NRG1. Protein extracted from cell lines were quantified using standard Bradford protein assay. Protein samples (50 μg) were fractionated by SDS-PAGE and transferred to nitrocellulose membrane. […] The blots were quantified using densiometric analysis and data was normalised to beta actin. […]

[2] = test system: FaDu cells; assay: CCK-8 proliferation assay, FaDu; format: cell-based, human; conditions: 5 days
Description: (§1) Briefly, N87 and FaDu cells were treated with serially diluted concentrations of anti-HER3 antibody 10D1, starting from 100 μg/ml with a 9-point half log dilution. Cell proliferation was measuring using the CCK-8 proliferation assay (Dojindo, Japan) after a period of 5 days, in accordance with the manufacturer's instructions. Briefly 1× CCK-8 solution was added to each well followed by incubation for 2 h at 37° C. The OD was then measured at 450 nm.

[3] = Pharmacokinetic analysis in NCr nude mice; conditions: 500 μg
Description: Female NCr nude mice approximately 6-8 weeks old were housed under specific pathogen-free conditions and treated in compliance with the Institutional Animal Care and Use Committee (IACUC) guidelines. 500 μg anti-HER3 antibody was administered and blood was obtained from 3 mice by cardiac puncture at baseline (−2 hr), 0.5 hr, 6 hr, 24 hr, 96 hr, 168 hr and 336 hr after administration. Antibody in the serum was quantified by ELISA.
The parameters for the pharmacokinetic analysis in rats and mice were derived from a non-compartmental model: maximum concentration (Cmax), AUC (0-336 hr), AUC (0-infinity), Half-life (t1/2), Clearance (CL), Volume of distribution at steady state (Vd).
Antibody in the serum was quantified by ELISA.
A single dose PK study was performed in NCr Nude mice (25 mg/kg HMBD-001, IV). A single dose PK study including a range of dose levels (2, 5, 10 and 25 mg/kg HMBD-001, IP) was conducted in A549 tumour bearing mice.

[4] = biological target: T1, rat HER3 (Rattus norvegicus, UniProt Q62799); assay: ELISA cross-reactivity, rat HER3; format: binding
T1 construct: purchased Sino Biological Inc., China
T1 sequence (Q62799 20-1339): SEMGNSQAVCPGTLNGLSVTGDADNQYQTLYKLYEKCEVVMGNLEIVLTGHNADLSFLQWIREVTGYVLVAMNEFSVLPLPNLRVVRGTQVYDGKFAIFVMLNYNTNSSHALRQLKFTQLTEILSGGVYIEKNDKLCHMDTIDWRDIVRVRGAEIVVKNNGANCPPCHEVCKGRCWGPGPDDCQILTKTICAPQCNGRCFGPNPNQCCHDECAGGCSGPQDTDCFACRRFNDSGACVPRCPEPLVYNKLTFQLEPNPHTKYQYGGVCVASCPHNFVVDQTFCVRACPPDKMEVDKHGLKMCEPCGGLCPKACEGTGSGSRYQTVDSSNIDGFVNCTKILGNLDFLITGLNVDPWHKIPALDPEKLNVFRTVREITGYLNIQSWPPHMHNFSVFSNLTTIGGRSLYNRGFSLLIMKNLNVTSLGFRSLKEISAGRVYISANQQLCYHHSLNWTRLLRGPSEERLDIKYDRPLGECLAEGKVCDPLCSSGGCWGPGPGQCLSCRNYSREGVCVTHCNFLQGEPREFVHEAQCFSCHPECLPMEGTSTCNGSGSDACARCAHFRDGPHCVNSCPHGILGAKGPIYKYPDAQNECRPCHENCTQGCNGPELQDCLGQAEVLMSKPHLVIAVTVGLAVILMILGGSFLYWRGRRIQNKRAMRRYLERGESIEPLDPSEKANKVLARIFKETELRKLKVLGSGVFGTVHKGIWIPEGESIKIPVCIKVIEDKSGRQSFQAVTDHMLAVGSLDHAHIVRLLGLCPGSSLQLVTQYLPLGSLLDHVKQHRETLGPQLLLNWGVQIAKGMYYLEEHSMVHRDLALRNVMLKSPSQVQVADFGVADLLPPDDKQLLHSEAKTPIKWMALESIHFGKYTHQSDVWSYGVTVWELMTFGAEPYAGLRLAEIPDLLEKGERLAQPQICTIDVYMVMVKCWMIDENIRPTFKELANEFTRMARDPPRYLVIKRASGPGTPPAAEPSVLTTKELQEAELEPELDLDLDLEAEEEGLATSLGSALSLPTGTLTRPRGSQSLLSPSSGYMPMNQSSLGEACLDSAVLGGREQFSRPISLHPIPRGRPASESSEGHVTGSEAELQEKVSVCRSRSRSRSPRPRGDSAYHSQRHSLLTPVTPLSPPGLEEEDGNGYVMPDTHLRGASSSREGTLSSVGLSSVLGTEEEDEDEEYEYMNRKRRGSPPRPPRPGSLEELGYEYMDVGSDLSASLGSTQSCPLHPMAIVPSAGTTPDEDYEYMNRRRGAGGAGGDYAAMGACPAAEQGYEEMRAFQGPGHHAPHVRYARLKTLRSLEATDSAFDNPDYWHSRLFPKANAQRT
Description: (§2) ELISAs were used to determine the binding specificity of the antibodies. The antibodies were analysed for binding to human HER3 polypeptide, as well as respective mouse, rat and monkey homologues of HER3 (Sino Biological Inc., China). The antibodies were also analysed for their ability to bind to human EGFR and human HER2 (Sino Biological Inc., China).
(§3) ELISAs were carried out according to standard protocols. Briefly, 96-well plates (Nunc, Denmark) were coated with 0.1 μg/ml of target polypeptide in phosphate-buffered saline (PBS) for 16 h at 4° C. After blocking for 1 h with 1% BSA in Tris buffer saline (TBS) at room temperature, the anti-HER3 antibody was serially diluted with the highest concentration being 10 μg/ml, and added to the plate. Post 1 h incubation at room temperature, plates were washed three times with TBS containing 0.05% Tween 20 (TBS-T) and were then incubated with a HRP-conjugated anti-His antibody (Life Technologies, Inc., USA) for 1 h at room temperature. After washing, plates were developed with colorimetric detection substrate 3,3′,5,5′-tetramethylbenzidine (Turbo-TMB; Pierce, USA) for 10 min. The reaction was stopped with 2M H2SO4, and OD was measured at 450 nm. […]

[5] = biological target: T2, mouse HER3 (Mus musculus, UniProt Q61526); assay: ELISA cross-reactivity, mouse HER3; format: binding
T2 construct: purchased Sino Biological Inc., China
T2 sequence (Q61526 20-1339): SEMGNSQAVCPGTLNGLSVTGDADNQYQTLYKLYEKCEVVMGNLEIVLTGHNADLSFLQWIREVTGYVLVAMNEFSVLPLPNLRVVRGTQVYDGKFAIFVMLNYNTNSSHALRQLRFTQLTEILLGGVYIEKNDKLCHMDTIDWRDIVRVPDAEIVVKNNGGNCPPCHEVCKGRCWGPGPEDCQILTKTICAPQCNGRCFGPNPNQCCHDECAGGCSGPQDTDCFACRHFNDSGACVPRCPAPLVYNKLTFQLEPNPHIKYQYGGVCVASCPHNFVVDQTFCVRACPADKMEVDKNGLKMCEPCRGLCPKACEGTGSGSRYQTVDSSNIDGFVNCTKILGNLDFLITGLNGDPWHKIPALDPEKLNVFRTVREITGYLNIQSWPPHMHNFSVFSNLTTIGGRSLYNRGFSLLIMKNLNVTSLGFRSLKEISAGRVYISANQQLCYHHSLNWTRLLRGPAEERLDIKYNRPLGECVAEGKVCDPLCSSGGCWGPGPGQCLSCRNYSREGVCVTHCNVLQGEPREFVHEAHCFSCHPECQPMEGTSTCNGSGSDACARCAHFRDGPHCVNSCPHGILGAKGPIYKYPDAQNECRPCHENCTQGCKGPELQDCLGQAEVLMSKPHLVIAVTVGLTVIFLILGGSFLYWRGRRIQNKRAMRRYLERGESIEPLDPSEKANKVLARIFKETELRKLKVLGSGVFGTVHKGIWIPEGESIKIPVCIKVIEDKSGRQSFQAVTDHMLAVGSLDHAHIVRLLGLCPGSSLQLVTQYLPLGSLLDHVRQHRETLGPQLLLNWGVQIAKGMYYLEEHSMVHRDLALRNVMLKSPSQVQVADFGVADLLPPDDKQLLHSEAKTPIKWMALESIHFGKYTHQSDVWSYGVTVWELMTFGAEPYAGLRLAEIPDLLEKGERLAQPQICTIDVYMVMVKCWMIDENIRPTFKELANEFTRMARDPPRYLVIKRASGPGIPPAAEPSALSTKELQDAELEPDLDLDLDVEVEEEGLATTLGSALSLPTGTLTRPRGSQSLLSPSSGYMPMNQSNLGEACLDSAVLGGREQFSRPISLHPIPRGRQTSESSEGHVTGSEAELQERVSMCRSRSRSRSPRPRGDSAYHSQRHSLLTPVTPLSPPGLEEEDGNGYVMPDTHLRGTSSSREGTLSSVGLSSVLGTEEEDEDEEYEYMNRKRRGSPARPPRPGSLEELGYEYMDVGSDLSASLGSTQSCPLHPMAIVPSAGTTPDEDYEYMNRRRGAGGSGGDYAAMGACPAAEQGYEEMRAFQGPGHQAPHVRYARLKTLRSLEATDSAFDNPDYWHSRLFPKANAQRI
Description: as §2, §3

[6] = test system: ACHN cell-line derived mouse model of renal cell carcinoma; assay: ACHN cell-line derived xenograft model; format: in vivo; conditions: IP biweekly 500 μg, 7 doses
Description: Tumor volumes were measured 3 times a week using a digital caliper and calculated using the formula [L ×W2/2]. Study End point was considered to have been reaches once the tumors of the control arm measured >1.5 cm in length.
The model was established by subcutaneous injection of 1×10^6 ACHN cells into the right flanks of female NCr nude mice (n=6 mice per treatment group).
10D1 was administered IP, biweekly at 500 μg per dose (for a total of 7 doses); a control treatment group received an equal volume of PBS.

[7] = biological target: T3, human HER2 (Homo sapiens, UniProt P04626); assay: ELISA specificity, human HER2; format: binding; conditions: antibody up to 10 μg/ml
T3 construct: purchased Sino Biological Inc., China
Description: as §2
ELISAs were carried out according to standard protocols. Briefly, 96-well plates (Nunc, Denmark) were coated with 0.1 μg/ml of target polypeptide in phosphate-buffered saline (PBS) for 16 h at 4° C. After blocking for 1 h with 1% BSA in Tris buffer saline (TBS) at room temperature, the anti-HER3 antibody was serially diluted with the highest concentration being 10 μg/ml, and added to the plate. Post 1 h incubation at room temperature, plates were washed three times with TBS containing 0.05% Tween 20 (TBS-T) and were then incubated with a HRP-conjugated anti-His antibody (Life Technologies, Inc., USA) for 1 h at room temperature. […] The reaction was stopped with 2M H2SO4, and OD was measured at 450 nm.
The antibodies were analysed for their ability to bind to human HER3 polypeptide as well as human HER1 (EGFR) and human HER2 (Sino Biological Inc., China). […]
ELISAs were carried out according to standard protocols. […] The reaction was stopped with 2M H2SO4, and OD was measured at 450 nm.

[8] = test system: N87 cells; assay: CCK-8 proliferation assay, N87; format: cell-based, human; conditions: 5 days
Description: as §1

- binding / cross-reactivity with rat HER3 [4]: substantial cross-reactivity
- binding / cross-reactivity with mouse HER3 [5]: substantial cross-reactivity
- binding to human HER2 [7]: not to bind
B1: 10D1: anti-HER3 antibody clone, VH SEQ ID NO:24, VL SEQ ID NO:74; [1] of Example 2.2 (antibody, V domains shown)
VH: DVQLQESGPDLVKPSQSLSLTCTVTGYSITSGYSWHWIRQFPGNKLEWMGSIHYSGGTNYNPSLKSRISITRDTSKNQFFLQLNSVTTEDTATYFCARMTTAPRYPFDYWGQGTTLTVSS
VL: DIVMTQSQKFMSTSVGDRVSVTCKASQIVGSNVAWYQQKPGQSPKPLIYSASYRYSGVPDRFTASGSGTDFTLTITNVQSEDLAEYFCQQYSSHPLTFGAGTKLELK
- HER3 phosphorylation and downstream signalling [1]: inhibit HER3 phosphorylation and downstream signalling
- cell proliferation [2]: dose-dependent inhibition of cell proliferation
- half-life [3]: 16.3 days
- inhibition of tumor growth [6]: ~61%
- cell proliferation [8]: dose-dependent inhibition of cell proliferation
